The record followed here is patent US20240101645A1 (HENRY M JACKSON FOUNDATION FOR THE ADVANCEMENT OF MILITARY …, published 2024).

In assay [1] the target is SARS-CoV-2 S on pseudovirions (Wuhan Hu-1 / IL1/2020, last 18 amino acids removed) (SARS-CoV-2, UniProt P0DTC2 14-1273). The assay is described as follows: cell-based or functional assay.
The target in assay [2] is T1, HCoV-OC43 spike antigens (bead panel) (HCoV-OC43, UniProt P36334 14-1297).
T1 sequence: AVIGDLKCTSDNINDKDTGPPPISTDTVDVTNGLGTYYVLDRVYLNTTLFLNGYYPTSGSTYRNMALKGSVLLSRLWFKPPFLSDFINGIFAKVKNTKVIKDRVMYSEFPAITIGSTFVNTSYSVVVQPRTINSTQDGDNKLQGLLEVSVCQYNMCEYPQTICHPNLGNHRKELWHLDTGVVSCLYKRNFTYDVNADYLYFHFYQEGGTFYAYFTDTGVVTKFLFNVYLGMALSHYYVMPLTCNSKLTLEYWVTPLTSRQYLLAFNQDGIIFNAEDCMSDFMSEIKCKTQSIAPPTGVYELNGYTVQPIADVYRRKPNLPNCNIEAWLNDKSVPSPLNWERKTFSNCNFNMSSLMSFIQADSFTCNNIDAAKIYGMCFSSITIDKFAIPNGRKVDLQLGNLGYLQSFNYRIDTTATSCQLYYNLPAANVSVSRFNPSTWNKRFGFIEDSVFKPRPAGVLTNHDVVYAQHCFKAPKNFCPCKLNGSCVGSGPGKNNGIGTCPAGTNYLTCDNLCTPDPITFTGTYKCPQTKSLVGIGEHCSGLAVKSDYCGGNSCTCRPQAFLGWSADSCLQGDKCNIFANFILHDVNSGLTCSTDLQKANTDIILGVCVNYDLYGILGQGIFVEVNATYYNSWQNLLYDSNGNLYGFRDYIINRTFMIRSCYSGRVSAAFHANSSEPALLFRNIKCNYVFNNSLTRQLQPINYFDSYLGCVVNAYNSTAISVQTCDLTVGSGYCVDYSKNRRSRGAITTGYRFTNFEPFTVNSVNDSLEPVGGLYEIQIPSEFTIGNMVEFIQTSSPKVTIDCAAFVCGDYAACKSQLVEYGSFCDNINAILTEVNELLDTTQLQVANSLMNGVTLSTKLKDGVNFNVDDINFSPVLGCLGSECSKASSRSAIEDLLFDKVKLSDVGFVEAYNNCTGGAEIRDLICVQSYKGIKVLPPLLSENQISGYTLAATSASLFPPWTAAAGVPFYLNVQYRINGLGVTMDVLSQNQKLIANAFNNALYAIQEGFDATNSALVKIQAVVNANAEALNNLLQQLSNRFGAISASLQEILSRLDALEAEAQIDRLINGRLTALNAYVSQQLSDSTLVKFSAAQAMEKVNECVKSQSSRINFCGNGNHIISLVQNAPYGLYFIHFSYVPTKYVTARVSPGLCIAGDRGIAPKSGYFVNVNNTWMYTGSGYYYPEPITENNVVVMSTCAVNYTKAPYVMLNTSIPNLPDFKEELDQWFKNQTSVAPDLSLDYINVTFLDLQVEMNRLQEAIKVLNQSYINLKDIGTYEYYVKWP
In words: multiplex bead assay.

Assay [3] has as its target T2, HCoV-NL63 spike antigens (bead panel) (HCoV-NL63, UniProt Q6Q1S2 19-1296).
T2 sequence: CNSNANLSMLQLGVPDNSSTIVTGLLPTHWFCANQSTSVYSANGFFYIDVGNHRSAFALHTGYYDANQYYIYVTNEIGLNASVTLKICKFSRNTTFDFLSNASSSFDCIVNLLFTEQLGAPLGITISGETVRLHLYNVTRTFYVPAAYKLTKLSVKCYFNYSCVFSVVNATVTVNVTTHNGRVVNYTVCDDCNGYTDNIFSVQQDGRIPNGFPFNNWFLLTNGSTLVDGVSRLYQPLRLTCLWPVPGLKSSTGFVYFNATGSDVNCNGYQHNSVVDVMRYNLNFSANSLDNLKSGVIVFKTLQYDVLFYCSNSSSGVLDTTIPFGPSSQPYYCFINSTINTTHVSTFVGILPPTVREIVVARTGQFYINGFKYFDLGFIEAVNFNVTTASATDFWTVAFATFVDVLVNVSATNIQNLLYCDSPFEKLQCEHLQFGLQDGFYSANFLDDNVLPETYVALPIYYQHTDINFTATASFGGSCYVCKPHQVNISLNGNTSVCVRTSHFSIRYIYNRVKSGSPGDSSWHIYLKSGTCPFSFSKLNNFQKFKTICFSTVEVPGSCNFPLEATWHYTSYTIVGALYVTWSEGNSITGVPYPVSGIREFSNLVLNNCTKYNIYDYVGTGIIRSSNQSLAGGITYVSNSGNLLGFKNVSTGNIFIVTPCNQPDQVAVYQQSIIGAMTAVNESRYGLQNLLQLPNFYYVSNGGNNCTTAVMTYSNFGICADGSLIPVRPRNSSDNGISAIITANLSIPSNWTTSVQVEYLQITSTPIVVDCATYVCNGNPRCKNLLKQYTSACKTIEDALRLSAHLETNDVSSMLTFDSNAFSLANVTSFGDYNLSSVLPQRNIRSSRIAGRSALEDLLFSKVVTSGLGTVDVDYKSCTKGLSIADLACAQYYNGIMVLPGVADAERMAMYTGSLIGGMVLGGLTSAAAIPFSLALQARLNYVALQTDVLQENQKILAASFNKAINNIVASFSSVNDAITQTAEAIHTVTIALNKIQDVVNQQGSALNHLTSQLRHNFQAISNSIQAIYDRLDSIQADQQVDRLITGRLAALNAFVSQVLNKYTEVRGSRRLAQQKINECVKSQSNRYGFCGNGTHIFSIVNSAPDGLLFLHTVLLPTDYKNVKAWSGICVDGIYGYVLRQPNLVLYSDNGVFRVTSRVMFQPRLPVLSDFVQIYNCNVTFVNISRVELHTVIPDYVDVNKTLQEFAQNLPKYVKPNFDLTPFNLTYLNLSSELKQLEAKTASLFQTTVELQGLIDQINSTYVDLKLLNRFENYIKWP
In words: multiplex bead assay.

Assay [4] addresses SARS-CoV-1 spike antigens (bead panel) (SARS-CoV-1, UniProt P59594 14-1195). In words: multiplex bead assay.

B1: COV_1050 (antibody, V domains shown)
VH: QVQLVESGGGVVQPGRSLRLSCAASRFTFSSYAMHWVRQAPGKGLEWVAVISFDGSNKYYADSVKGRFTIFRDNSKNTLSLQMNSLRTEDTAMYYCASPAGYYESLWGQGTLVTVSS
VL: SYELTQPPSVSVSPGQTARVTCSGDALSKQYGFWYQQKPGQAPTLVIYKDTERPSGIPERFSGSGSGTTVTLTISGVQAEDEADYYCQSTDNSGRWVFGGGTKLTVLG
notes: human IgG1
Turning to B1, in assay [1], the “Mean IC50, pSV neutralization” value is ≥ 25 µg/ml. The “Mean IC80, pSV neutralization” value in assay [1] was ≥ 25 µg/ml. Moreover, the binding result in assay [2], in assay [3] and in assay [4] was “no binding” in each case.
